Laboratory results from patent publication US20220411501A1 (INTERNATIONAL DRUG DEVELOPMENT BIOTECH, published 2022).

What was measured:
[1] = molecular target: T1, CD117 (c-Kit, stem cell factor receptor) on HEL or TF1 human erythroleukemia cells (human, UniProt P10721 26-976); assay: flow cytometry on HEL cells; 10 µl/2.10^5 cells
T1 construct: whole, on cells
Description: (§1) By flow cytometry, the humanized mAb staining was analyzed on HEL CD117 positive cell line. […] No staining was observed on the cell line CEM (CD117 negative, (data not shown).

[2] = molecular target: T1, CD117 (c-Kit, stem cell factor …); assay: flow cytometry on HEL cells; 100 µl/2.10^5 cells
Description: as §1

[3] = molecular target: T1, CD117 (c-Kit, stem cell factor …); assay: flow cytometry on HEL cells; 1 µl/2.10^5 cells
Description: as §1

[4] = molecular target: T1, CD117 (c-Kit, stem cell factor …); assay: flow cytometry on HEL cells; 0.1 µl/2.10^5 cells
Description: as §1

T1 sequence (P10721 26-976): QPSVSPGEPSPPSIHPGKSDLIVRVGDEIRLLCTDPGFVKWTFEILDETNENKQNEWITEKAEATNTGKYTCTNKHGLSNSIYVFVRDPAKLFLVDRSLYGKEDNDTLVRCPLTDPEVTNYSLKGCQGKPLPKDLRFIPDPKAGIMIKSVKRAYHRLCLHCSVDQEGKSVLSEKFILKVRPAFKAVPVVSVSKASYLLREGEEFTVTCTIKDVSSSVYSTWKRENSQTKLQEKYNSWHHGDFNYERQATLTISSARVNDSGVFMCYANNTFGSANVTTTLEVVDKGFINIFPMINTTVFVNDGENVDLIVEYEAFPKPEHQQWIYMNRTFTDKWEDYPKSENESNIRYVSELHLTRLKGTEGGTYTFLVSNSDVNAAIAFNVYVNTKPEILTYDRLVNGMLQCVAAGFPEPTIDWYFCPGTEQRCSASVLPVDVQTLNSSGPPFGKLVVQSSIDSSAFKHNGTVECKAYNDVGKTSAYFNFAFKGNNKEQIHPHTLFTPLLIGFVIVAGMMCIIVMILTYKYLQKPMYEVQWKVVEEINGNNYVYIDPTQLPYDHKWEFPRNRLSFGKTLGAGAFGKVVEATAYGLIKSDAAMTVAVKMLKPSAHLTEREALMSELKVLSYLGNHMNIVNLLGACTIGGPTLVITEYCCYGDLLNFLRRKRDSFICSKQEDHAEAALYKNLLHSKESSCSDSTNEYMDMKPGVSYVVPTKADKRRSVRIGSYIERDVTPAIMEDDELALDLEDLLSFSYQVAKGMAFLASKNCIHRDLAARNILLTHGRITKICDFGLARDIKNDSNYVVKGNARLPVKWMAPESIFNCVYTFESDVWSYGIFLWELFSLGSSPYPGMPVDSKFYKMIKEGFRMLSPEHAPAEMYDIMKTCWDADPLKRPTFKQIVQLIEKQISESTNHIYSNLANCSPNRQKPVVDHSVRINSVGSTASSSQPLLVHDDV

Row | % labelled HEL cells [1] [%] | MFI [1] | % labelled HEL cells [2] [%] | MFI [2] | % labelled HEL cells [3] [%] | MFI [3] | % labelled HEL cells [4] [%] | MFI [4] | Binder
1 | 81 | 262 | 80 | 251 | 80 | 259 | 43 | 259 | ch36-05 chimeric monoclonal antibody (antibody, human IgG1, kappa, V domains shown, Murine VH + human IgG1 Fc; murine VL + human Kappa; also called chR036-05; chR036.05) VH: QVQLQQSGAELVKPGAPVKLSCKASGYTFTRYWMNWVKQRPGRGLEWIGRIDPSDSEIHYNQNFKDKATLTVDKSSSTAYIQLSSLTSEDSAVYYCARDYGSDYYAMDYWGQGTSVTVSS VL: QIVLTQSPAIMSASLGEEITLTCSASSSVSYMHWYQQKSGTSPKLLIYSTSNLTSGVPSRFSGSGSGTFYSLTISSVEAEDAADYYCHQWSSYPFGGGTKLEIKR
2 | 70 | 236 | 73 | 241 | 67 | 228 | 59 | 210 | humanized antibody 36-5 Hz121 (antibody, human IgG1, V domains shown, The variable regions were cloned into vector p3U containing the human IgG1 constant region; also called H-36.5Hz30 + L-36.5Hz31) VH: QVQLVQSGAEVKKPGASVKVSCKASGYTFTSYWMNWVRQAPGQGLEWMGRIDPSDSEIHYNQKFKGRVTMTVDTSTSTAYMELSSLRSEDTAVYYCARDYGSDYYAMDYWGQGTLVTVSS VL: QIVLTQSPAFQSVTPGEKVTITCSASQSVSYMHWYQQKSGTSPKLLIYSTSNLTSGVPSRFSGSGSGTDYTLTISSLEAEDAATYYCHQWSSYPFGGGTKVEIK
3 | 77 | 250 | 94 | 291 | 72 | 240 | 61 | 214 | humanized antibody 36-5 Hz128 (antibody, human IgG1, V domains shown, The variable regions were cloned into vector p3U containing the human IgG1 constant region; also called H-36.5Hz31 + L-36.5Hz31) VH: QVQLVQSGAEVKKPGASVKVSCKASGYTFTSYWMNWVRQAPGQGLEWIGRIDPSDSEIHYNQKFKGRVTMTVDTSTSTAYMELSSLRSEDTAVYYCARDYGSDYYAMDYWGQGTLVTVSS VL: QIVLTQSPAFQSVTPGEKVTITCSASQSVSYMHWYQQKSGTSPKLLIYSTSNLTSGVPSRFSGSGSGTDYTLTISSLEAEDAATYYCHQWSSYPFGGGTKVEIK
4 | 70 | 136 | 74 | 242 | 66 | 228 | 64 | 225 | humanized antibody 36-5 Hz114 (antibody, human IgG1, V domains shown, The variable regions were cloned into expression vector p3U containing the human IgG1 constant region; also called H-36.5Hz27 + L-36.5Hz31) VH: QVQLVQSGAEVKKPGASVKVSCKASGYTFTSYWMNWVRQAPGQGLEWMGRIDPSDSEIHYNQKFKDKATLTVDKSTSTAYMELSSLRSEDTAVYYCARDYGSDYYAMDYWGQGTLVTVSS VL: QIVLTQSPAFQSVTPGEKVTITCSASQSVSYMHWYQQKSGTSPKLLIYSTSNLTSGVPSRFSGSGSGTDYTLTISSLEAEDAATYYCHQWSSYPFGGGTKVEIK
